Patent EP4707292A2 (The University of North Carolina at Chapel Hill, dated 2026)

Experiments:
[1] = biological target: T1, Adeno-associated virus 9 (AAV9) virion (adeno-associated virus 9); experiment: co-IP with ADK9/LC-MS/MS, AAV9 + human serum vs control
T1 construct: Intact virion; capsid of VP1, VP2, VP3; also called AAV9/luc; AAV9 capsid

[2] = biological target: T2, Adeno-associated virus 8 (AAV8) virion (adeno-associated virus 8); experiment: co-IP/LC-MS/MS, AAV8 + human serum vs PBS control
T2 construct: Intact virion with packaged vector genome; capsid of 60 subunits (VP1, VP2, VP3, overlapping products of one cap gene); also called AAV8/luc; AAV8 capsid

[3] = biological target: T1, Adeno-associated virus 9 (AAV9) virion; experiment: co-IP with ADK9/LC-MS/MS, AAV9 + human serum vs control; remark: listed apart in the source

B1: Plasminogen (other)
chain: EPLDDYVNTQGASLFSVTKKQLGAGSIEECAAKCEEDEEFTCRAFQYHSKEQQCVIMAENRKSSIIIRMRDVVLFEKKVYLSECKTGNGKNYRGTMSKTKNGITCQKWSSTSPHRPRFSPATHPSEGLEENYCRNPDNDPQGPWCYTTDPEKRYDYCDILECEEECMHCSGENYDGKISKTMSGLECQAWDSQSPHAHGYIPSKFPNKNLKKNYCRNPDRELRPWCFTTDPNKRWELCDIPRCTTPPPSSGPTYQCLKGTGENYRGNVAVTVSGHTCQHWSAQTPHTHNRTPENFPCKNLDENYCRNPDGKRAPWCHTTNSQVRWEYCKIPSCDSSPVSTEQLAPTAPPELTPVVQDCYHGDGQSYRGTSSTTTTGKKCQSWSSMTPHRHQKTPENYPNAGLTMNYCRNPDADKGPWCFTTDPSVRWEYCNLKKCSGTEASVVAPPPVVLLPDVETPSEEDCMFGNGKGYRGKRATTVTGTPCQDWAAQEPHRHSIFTPETNPRAGLEKNYCRNPDGDVGGPWCYTTNPRKLYDYCDVPQCAAPSFDCGKPQVEPKKCPGRVVGGCVAHPHSWPWQVSLRTRFGMHFCGGTLISPEWVLTAAHCLEKSPRPSSYKVILGAHQEVNLEPHVQEIEVSRLFLEPTRKDIALLKLSSPAVITDKVIPACLPSPNYVVADRTECFITGWGETQGTFGAGLLKEAQLPVIENKVCNRYEFLNGRVQSTELCAGHLAGGTDSCQGDSGGPLVCFEKDKYILQGVTSWGLGCARPNKPGVYVRVSRFVTWIEGVMRNN
notes: also called PLG; PMG
fold change [1]: 1.48 fold | fold change [2]: 1.48 fold | Fold increase [3]: 3.23 fold
